Literature values as cited in PMC10875074.

Molecular target: CD155 (poliovirus receptor, Necl-5) (Homo sapiens) (UniProt P15151)
UniProt P15151, sequence (P15151 21-343): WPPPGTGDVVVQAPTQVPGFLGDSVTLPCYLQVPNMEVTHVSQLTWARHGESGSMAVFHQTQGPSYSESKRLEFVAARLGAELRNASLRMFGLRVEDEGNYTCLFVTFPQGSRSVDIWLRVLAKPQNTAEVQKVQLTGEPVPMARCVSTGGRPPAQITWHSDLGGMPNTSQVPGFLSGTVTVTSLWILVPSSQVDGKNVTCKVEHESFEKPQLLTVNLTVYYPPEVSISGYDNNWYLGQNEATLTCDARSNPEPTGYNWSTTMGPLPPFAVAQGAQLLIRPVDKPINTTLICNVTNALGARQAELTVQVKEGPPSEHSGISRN

## TIGIT (from UniProt Q495A1)
  Kd: 2 nM
